Measurements reported in IntAct's records for PubMed 18805096.

B1: Cytoplasmic FMR1-interacting protein 1 (Homo sapiens), Q7L576 (parent)
chain: MAAQVTLEDALSNVDLLEELPLPDQQPCIEPPPSSLLYQPNFNTNFEDRNAFVTGIARYIEQATVHSSMNEMLEEGQEYAVMLYTWRSCSRAIPQVKCNEQPNRVEIYEKTVEVLEPEVTKLMNFMYFQRNAIERFCGEVRRLCHAERRKDFVSEAYLITLGKFINMFAVLDELKNMKCSVKNDHSAYKRAAQFLRKMADPQSIQESQNLSMFLANHNKITQSLQQQLEVISGYEELLADIVNLCVDYYENRMYLTPSEKHMLLKVMGFGLYLMDGSVSNIYKLDAKKRINLSKIDKYFKQLQVVPLFGDMQIELARYIKTSAHYEENKSRWTCTSSGSSPQYNICEQMIQIREDHMRFISELARYSNSEVVTGSGRQEAQKTDAEYRKLFDLALQGLQLLSQWSAHVMEVYSWKLVHPTDKYSNKDCPDSAEEYERATRYNYTSEEKFALVEVIAMIKGLQVLMGRMESVFNHAIRHTVYAALQDFSQVTLREPLRQAIKKKKNVIQSVLQAIRKTVCDWETGHEPFNDPALRGEKDPKSGFDIKVPRRAVGPSSTQLYMVRTMLESLIADKSGSKKTLRSSLEGPTILDIEKFHRESFFYTHLINFSETLQQCCDLSQLWFREFFLELTMGRRIQFPIEMSMPWILTDHILETKEASMMEYVLYSLDLYNDSAHYALTRFNKQFLYDEIEAEVNLCFDQFVYKLADQIFAYYKVMAGSLLLDKRLRSECKNQGATIHLPPSNRYETLLKQRHVQLLGRSIDLNRLITQRVSAAMYKSLELAIGRFESEDLTSIVELDGLLEINRMTHKLLSRYLTLDGFDAMFREANHNVSAPYGRITLHVFWELNYDFLPNYCYNGSTNRFVRTVLPFSQEFQRDKQPNAQPQYLHGSKALNLAYSSIYGSYRNFVGPPHFQVICRLLGYQGIAVVMEELLKVVKSLLQGTILQYVKTLMEVMPKICRLPRHEYGSPGILEFFHHQLKDIVEYAELKTVCFQNLREVGNAILFCLLIEQSLSLEEVCDLLHAAPFQNILPRVHVKEGERLDAKMKRLESKYAPLHLVPLIERLGTPQQIAIAREGDLLTKERLCCGLSMFEVILTRIRSFLDDPIWRGPLPSNGVMHVDECVEFHRLWSAMQFVYCIPVGTHEFTVEQCFGDGLHWAGCMIIVLLGQQRRFAVLDFCYHLLKVQKHDGKDEIIKNVPLKKMVERIRKFQILNDEIITILDKYLKSGDGEGTPVEHVRCFQPPIHQSLASS

Variants of: B1
Settings: with if4e_human EIF4E

**Q.** D724A;R726A was tested. Which “effect of a mutation on the interaction” value did it give?
**A.** Its value is “decreasing interaction”.

**Q.** How did the “effect of a mutation on the interaction” value turn out when K725E was run?
**A.** Its value is “decreasing interaction”.
